Measured values as given in the supplement of paper PMC9732359.
± gives the uncertainty stated by the source.

Assay: protein stability index of a GFP-peptide fusion (yeast GPS) (PSI 1-4); higher = more stable; sorted into four equal gates, so the index is relative within each strain
Outline: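 Tiled 17-residue yeast protein peptides were fused downstream of GFP in a plasmid that also expresses Cherry, and the pooled library was carried in yeast. Mid-log cultures in leucine-free medium were sorted into four equal gates by GFP/Cherry fluorescence ratio, and plasmids from each gate were PCR-amplified and Illumina-sequenced, with reads assigned to strains by barcodes. The protein stability index for each peptide was each gate's read frequency times its gate number, summed.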

Sequence | protein stability index (doa10∆) | protein stability index (pdr5∆) | protein stability index (san1∆) | protein stability index (ubr1∆)
RFKNSVKWYHFDHNDKK [PRE7] | 2.32 ± 0.057 | 2.76 ± 0.064 | 2.69 ± 0.043 | 2.62 ± 0.043
AVSVANGFMHAGTTDNS [RPN2] | 1.25 ± 0.062 | 1.4 ± 0.051 | 1.17 ± 0.24 | 1.28 ± 0.067
KDNARIYQVPEKDLEHW [POP1] | – | – | 2.26 ± 0.23 | –
ISEINFLHESSFDSIDH [CSI1] | 2.54 ± 0.05 | 2.95 ± 0.06 | 2.51 ± 0.069 | 2.84 ± 0.041
LVFCKHITSVPISAVLR [GRR1] | 1.61 ± 0.053 | 1.72 ± 0.05 | 1.92 ± 0.088 | 1.71 ± 0.042
TQEIRPVNTGVLHVSAK [RRP40] | 2.72 ± 0.12 | 2.91 ± 0.1 | 2.74 ± 0.081 | 3.01 ± 0.11
NLQAKPLVGKPKTELTK [YAR002W/NUP60] | 2.72 ± 0.098 | 2.52 ± 0.067 | 2.7 ± 0.088 | 2.39 ± 0.1
LPKIKTVRKSIACVLTV [RPL35A] | 1.98 ± 0.28 | 2.79 ± 0.18 | – | 2.17 ± 0.14
ELAKEAKKSTTISKEST [ESC2] | 2.55 ± 0.13 | 2.47 ± 0.14 | 2.63 ± 0.21 | 2.85 ± 0.063
IFLKRKDFTNKNLIQLI [SRB8] | 1.31 ± 0.053 | 1.43 ± 0.041 | 1.28 ± 0.086 | 1.4 ± 0.041
YINDVHLLYPPHIIAVA [SSN8] | 1.74 ± 0.057 | 1.46 ± 0.041 | 2.15 ± 0.072 | 1.67 ± 0.065
MAESHRLYVKGKHLSYQ [RPL33A] | 2.71 ± 0.077 | 2.84 ± 0.068 | 2.52 ± 0.073 | 2.62 ± 0.058
GSLTFLDNKGSGEDAEE [YIL149C/MLP2] | 3.48 ± 0.27 | 3.22 ± 0.12 | 3.56 ± 0.12 | 3.46 ± 0.071
DFITGSYLISHKDSFYD [RPO31] | 2.02 ± 0.066 | 1.94 ± 0.049 | 2.13 ± 0.064 | 1.83 ± 0.045
NDLRVSLNEKNALHTER [SMC1] | 3.11 ± 0.11 | 3.24 ± 0.096 | 2.67 ± 0.11 | 2.81 ± 0.089
YQRPMQVQGQQQAQSFV [SSN3] | 2.42 ± 0.044 | 2.71 ± 0.045 | 2.5 ± 0.05 | 2.63 ± 0.035
AASSQVSIVKLDTQLIT [SNF12] | 1.69 ± 0.08 | 1.74 ± 0.07 | 1.64 ± 0.16 | 2.02 ± 0.11
NKIKLNILKILSSLILK [SRB8] | 1.79 ± 0.072 | 1.73 ± 0.074 | – | 1.87 ± 0.053
KVLKSGSGVDSSKLQLT [RRP42] | 2.94 ± 0.14 | 2.94 ± 0.1 | 3.16 ± 0.074 | 3.29 ± 0.1
GHEELKRRIEEEQEKIN [ISW2] | 3.36 ± 0.082 | 3.47 ± 0.086 | 3.13 ± 0.062 | 3.35 ± 0.055
DNFDYFNQRDGEHEKSN [MED1] | 2.86 ± 0.098 | 3 ± 0.2 | 3.19 ± 0.15 | 3.56 ± 0.14
FSVRTKDSNKDVVVEGL [RPL10] | 2.14 ± 0.051 | 2.32 ± 0.055 | 2.13 ± 0.073 | 2.77 ± 0.054
LSKMRDSVLQLASFEKT [RPO31] | 3.12 ± 0.13 | 2.97 ± 0.079 | 2.91 ± 0.11 | 3.01 ± 0.11
QLLDIAEFKKENLADLD [LIN1] | 1.48 ± 0.092 | 1.55 ± 0.097 | 1.24 ± 0.12 | 2.95 ± 0.096
EAFIASGITDPYEMYKY [FAS2] | 1.81 ± 0.038 | 2.06 ± 0.05 | 1.73 ± 0.068 | 2.14 ± 0.045
KNSRVELQKIYDRHQSS [SMC4] | 3.46 ± 0.098 | 3.01 ± 0.15 | 3.37 ± 0.11 | 3.14 ± 0.11

Sequence | protein stability index (doa10∆) | protein stability index (pdr5∆) | protein stability index (san1∆) | protein stability index (ubr1∆)
SHGNPVVDFLKRNGSTL [FAS1] | 3.02 ± 0.052 | 3.17 ± 0.049 | 3.1 ± 0.043 | 3.11 ± 0.038
ENHNKGKLWKDVKARIA [QCR9] | 2.77 ± 0.14 | 3.07 ± 0.19 | 3 ± 0.13 | 2.83 ± 0.12
LVSSGDRFIELISDQLL [YML103C/NUP188] | 2.76 ± 0.099 | 2.5 ± 0.079 | 2.42 ± 0.057 | 3 ± 0.06
GKQAIGAIAYNQFKRID [RET1] | 2.27 ± 0.2 | – | – | 2.28 ± 0.14
MKQYRDFLGVASTGSGK [PRP28] | 2.77 ± 0.1 | 2.72 ± 0.12 | 2.88 ± 0.061 | 2.93 ± 0.043
IAKSRYWYFLQKLHKVK [RPL20A] | 3.06 ± 0.11 | 3.06 ± 0.087 | 2.79 ± 0.075 | 3.03 ± 0.084
ANVELTPSNIRSLCEVL [RPC34] | 1.32 ± 0.053 | 1.68 ± 0.064 | 1.69 ± 0.078 | 2.02 ± 0.07
GSIEEPELNVSLNLTDD [MCD1] | 3.38 ± 0.058 | 3.44 ± 0.05 | 3.15 ± 0.064 | 3.39 ± 0.04
KNEKLKFQETLLRQKIE [ISW2] | 1.36 ± 0.11 | 1.37 ± 0.13 | 1.16 ± 0.15 | 1.15 ± 0.071
GTSVYLVDKRIDMLPML [DIS3] | 1.89 ± 0.18 | – | – | 2.12 ± 0.25
PSSQSQNDTPMFKLGNF [YLR018C/POM34] | 2.54 ± 0.044 | 2.8 ± 0.046 | 2.79 ± 0.036 | 2.6 ± 0.028
AIRKAPHNSKSLGFLQQ [RPN3] | 2.9 ± 0.082 | 2.7 ± 0.086 | 2.84 ± 0.083 | 2.54 ± 0.13
NEEGDWSCIVVENWIID [ITC1] | 2.38 ± 0.074 | 2.48 ± 0.082 | 2.68 ± 0.12 | 2.95 ± 0.11
DIAGQRDDALVVETITS [RRP42] | 3.1 ± 0.11 | 3.28 ± 0.094 | 2.27 ± 0.27 | 2.56 ± 0.092
LDIGLQRTTTGARVFGA [RPL5] | 1.35 ± 0.073 | 1.29 ± 0.096 | 1.31 ± 0.13 | 1.12 ± 0.071
ESYKPSVQLPDMAKLKK [SWI3] | 2.94 ± 0.081 | 2.9 ± 0.081 | 2.81 ± 0.06 | 2.79 ± 0.068
KIQQHNTILNSSSDFRL [BRR2] | 2.71 ± 0.06 | 2.89 ± 0.067 | 2.89 ± 0.041 | 2.78 ± 0.046
LEGITTTIDSLNAELES [SMC3] | 1.57 ± 0.088 | 1.77 ± 0.15 | 2.27 ± 0.17 | 3.14 ± 0.1
LFYFDSSFRPCPLSQQF [BRR2] | 2.47 ± 0.072 | 1.89 ± 0.051 | 2.68 ± 0.061 | 2.41 ± 0.033
QQTGLVDAITRCYQPFE [SNU114] | 2.53 ± 0.069 | 2.76 ± 0.056 | 3.04 ± 0.041 | 2.98 ± 0.05
YWQYKAGIPIGLKRSQL [SWP82] | 1.7 ± 0.13 | 1.57 ± 0.081 | 1.69 ± 0.15 | 1.49 ± 0.049
QTQREKAPLQPNSERET [IRR1] | 3.1 ± 0.061 | 3.2 ± 0.059 | 3.06 ± 0.039 | 3.07 ± 0.054
RIQLMNDFTTKLINIKK [MED1] | 2.89 ± 0.081 | 2.81 ± 0.099 | 2.84 ± 0.11 | 2.97 ± 0.086
IKNLPADVSKLMYSITF [SRB2] | 2.41 ± 0.054 | 2.95 ± 0.046 | 2.38 ± 0.049 | 2.76 ± 0.047
QNAADLQQICRVRNKDI [RPL9A] | 2.82 ± 0.088 | 3.3 ± 0.045 | 2.59 ± 0.087 | 2.89 ± 0.06
KDIFRYMQRTVEEAHDF [RPB2] | 2.24 ± 0.075 | 1.45 ± 0.046 | 1.91 ± 0.12 | 1.3 ± 0.045
